Results as given in paper PMC3744803, “A continuous fluorescence assay for the characterization of Nudix hydrolases” (Analytical Biochemistry, 2013).

Columns and labels:
[1] = substrate: Nc1nc2c([nH]c(=O)n2[C@@H]2O[C@H](CO[P@@](=O)(O)O[P@@](=O)(O)OP(=O)(O)O)[C@@H](O)[C@H]2O)c(=O)[nH]1; experiment: continuous fluorescence Pi-sensor (PBP-MDCC) assay; format: biochemical, Deinococcus radiodurans; conditions: pH 7.6, 37 °C, 10 mM Tris-HCl, 1 mM MgCl2, no coupling phosphatase
From the text: (§1) continuous fluorescence Pi-sensor (PBP-MDCC) assay on DR_1025

[2] = substrate: Nc1nc2c([nH]c(=O)n2[C@H]2C[C@H](O)[C@@H](COP(=O)(O)OP(=O)(O)OP(=O)(O)O)O2)c(=O)[nH]1; experiment: continuous fluorescence Pi-sensor (PBP-MDCC) assay; format: biochemical, Deinococcus radiodurans; conditions: pH 7.6, 37 °C, 10 mM Tris-HCl, 1 mM MgCl2, no coupling phosphatase
From the text: as §1

[3] = substrate: Nc1nc2c([nH]c(=O)n2[C@H]2C[C@H](O)[C@@H](COP(=O)(O)OP(=O)(O)OP(=O)(O)O)O2)c(=O)[nH]1; experiment: continuous fluorescence Pi-sensor (PBP-MDCC) assay; format: biochemical, Methanosarcina mazei; conditions: pH 7.6, 37 °C, 10 mM Tris-HCl, 1 mM MgCl2, PPase coupling
From the text: (§2) continuous fluorescence Pi-sensor (PBP-MDCC) assay on MM_0920

[4] = substrate: Nc1ncnc2c1[nH]c(=O)n2[C@H]1C[C@H](O)[C@@H](COP(=O)(O)OP(=O)(O)OP(=O)(O)O)O1; experiment: continuous fluorescence Pi-sensor (PBP-MDCC) assay; format: biochemical, Methanosarcina mazei; conditions: pH 7.6, 37 °C, 10 mM Tris-HCl, 1 mM MgCl2, PPase coupling
From the text: as §2

[5] = substrate: Nc1nc2c(ncn2[C@@H]2O[C@H](COP(=O)(O)OP(=O)(O)O[C@H]3O[C@H](CO)[C@@H](O)[C@H](O)[C@@H]3O)[C@@H](O)[C@H]2O)c(=O)[nH]1; experiment: discontinuous Fiske-SubbaRow (malachite green phosphate) assay; format: biochemical, Escherichia coli; conditions: pH 8.5, 37 °C, 1 mM MgCl2, APase coupling
From the text: discontinuous Fiske-SubbaRow (malachite green phosphate) assay on NudD

[6] = substrate: Nc1nc2c([nH]c(=O)n2[C@@H]2O[C@H](CO[P@@](=O)(O)O[P@@](=O)(O)OP(=O)(O)O)[C@@H](O)[C@H]2O)c(=O)[nH]1; experiment: continuous fluorescence Pi-sensor (PBP-MDCC) assay; format: biochemical, Escherichia coli; conditions: pH 7.6, 37 °C, 10 mM Tris-HCl, 1 mM MgCl2, PPase coupling
From the text: (§3) continuous fluorescence Pi-sensor (PBP-MDCC) assay on MutT

[7] = substrate: Nc1nc2c([nH]c(=O)n2[C@H]2C[C@H](O)[C@@H](COP(=O)(O)OP(=O)(O)OP(=O)(O)O)O2)c(=O)[nH]1; experiment: continuous fluorescence Pi-sensor (PBP-MDCC) assay; format: biochemical, Escherichia coli; conditions: pH 7.6, 37 °C, 10 mM Tris-HCl, 1 mM MgCl2, PPase coupling, alpha-beta cleavage
From the text: as §3

B1: DR_1025 (Deinococcus radiodurans R1 = ATCC 13939 = DSM 20539) (protein)
chain: MEHDERTHVPVELRAAGVVLLNERGDILLVQEKGIPGHPEKAGLWHIPSGAVEDGENPQDAAVREACEETGLRVRPVKFLGAYLGRFPDGVLILRHVWLAEPEPGQTLAPAFTDEIAEASFVSREDFAQLYAAGQIRMYQTKLFYADALREKGFPALPV
B1 was tested, and the Km [1] was 22 ± 5 µM, the kcat [1] was 0.13 ± 0.01 s⁻¹ and the Km [2] was 26 ± 1 µM. The kcat [2] was 0.18 ± 0.01 s⁻¹ and the kcat/Km [2] was 4400 ± 100 M⁻¹ s⁻¹.

B2: MM_0920 (Methanosarcina mazei Go1) (protein)
chain: MNLEKPYIISVYALIRNEKGEFLLLRRSENSRTNAGKWDLPGGKVNPDESLKEGVAREVWEETGITMVPGDIAGQVNFELTEKKVIAIVFDGGYVVADVKLSYEHIEYSWVSLEKILGMETLPAYFRDFFERFDRENKKPSKLFI
In the case of B2, the Km [3] is reported as 13 ± 3 µM, the kcat [3] is reported as “(1.9 ± 0.2) × 10^−3 s^−1” and the Km [4] is reported as 12 ± 3 µM. For the same protein, the kcat [4] was 0.00096 ± 8e-05 s⁻¹ and the kcat/Km [4] was 78 ± 12 M⁻¹ s⁻¹.

B3: NudD (Escherichia coli K-12) (protein)
chain: MFLRQEDFATVVRSTPLVSLDFIVENSRGEFLLGKRTNRPAQGYWFVPGGRVQKDETLEAAFERLTMAELGLRLPITAGQFYGVWQHFYDDNFSGTDFTTHYVVLGFRFRVSEEELLLPDEQHDDYRWLTSDALLASDNVHANSRAYFLAEKRTGVPGL
In the case of B3, the Km [5] is reported as 220 ± 60 µM.

B4: MutT (Escherichia coli K-12) (protein)
chain: MKKLQIAVGIIRNENNEIFITRRAADAHMANKLEFPGGKIEMGETPEQAVVRELQEEVGITPQHFSLFEKLEYEFPDRHITLWFWLVERWEGEPWGKEGQPGEWMSLVGLNADDFPPANEPVIAKLKRL
Work on B4 yielded a Km [6] of 0.9 ± 0.2 µM, a kcat [6] of 11.2 ± 0.9 s⁻¹ and a Km [7] of 0.28 ± 0.03 µM.
